T1: cynomolgus CXCR5 (on cynomolgus B cells) (cynomolgus monkey, UniProt G8F5K4 1-372)
T1 construct: also called cyno CXCR5
T1 sequence: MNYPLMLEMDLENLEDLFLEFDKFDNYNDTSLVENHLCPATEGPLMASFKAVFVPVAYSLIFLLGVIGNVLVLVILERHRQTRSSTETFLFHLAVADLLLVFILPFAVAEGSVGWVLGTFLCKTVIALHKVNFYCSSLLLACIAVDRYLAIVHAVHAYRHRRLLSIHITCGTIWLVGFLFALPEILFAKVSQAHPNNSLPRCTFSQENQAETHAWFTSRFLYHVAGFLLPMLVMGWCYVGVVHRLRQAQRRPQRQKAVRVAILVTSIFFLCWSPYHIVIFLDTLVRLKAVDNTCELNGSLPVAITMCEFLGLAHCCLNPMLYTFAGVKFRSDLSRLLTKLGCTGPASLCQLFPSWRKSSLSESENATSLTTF

T2: N-terminal EC region of human CXCR5 (amino acids 1-59), synthetic peptide with a terminal biotin tag (human, UniProt P32302 1-59, terminal biotin tag)
T2 construct: range 1-59; also called biotinylated human peptide
T2 sequence (peptide, looked up): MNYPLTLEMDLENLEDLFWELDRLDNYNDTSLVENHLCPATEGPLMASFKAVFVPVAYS

T3: un-tagged human CXCR5 N-terminal peptide (amino acids 1-59) (human, UniProt P32302 1-59)
T3 construct: range 1-59
T3 sequence (peptide, looked up): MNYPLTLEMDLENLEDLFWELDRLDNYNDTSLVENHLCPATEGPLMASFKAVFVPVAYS


Tests used:
[1] = target: T1, cynomolgus CXCR5 (on cynomolgus B cells); assay: FACS on cynomolgus PBMCs (CD20+ B cells)
Procedure: Cynomolgus (cyno) monkey whole blood was obtained from Bioreclamation, Inc. (Hicksville, N.Y.). The blood was shipped in BD Cell Preparation Tubes (CPT) post-centrifugation. The cyno PBMCs contained in the plasma layer were removed from the CPT tube into a 50 ml tube leaving the gradient gel layer undisturbed. The tube was washed with 5 ml PBS to completely extract all the cells and the wash was added to a fresh 50 ml tube. The cyno PBMCs were centrifuged at 1200 RPM for 10 minutes at 4° C. The pellet was resuspended in 1 ml BD FACS Stain buffer (BD). One million cells were used per assay. One μg of mouse anti-human CXCR5 monoclonal antibody (purified) was added to 50 μl PBMC and allowed to bind for 20 minutes at 4° C. Cells were washed 2 times with BD Stain buffer. Fifty μl of second antibody, goat anti-mouse IgG-PE F_{(ab′)} (Beckman Coulter) diluted 1/100, was added to the cells and allowed to bind for 20 minutes at 4° C. Cells were washed three times with BD Stain buffer. A cocktail containing mouse anti-human CD20-FITC (BD) and CD4-APC (BD) at 1/20 dilution each was added to cells for a 20 minute incubation at 4° C. for assessment of B/T cell specificity. Cells were washed 3 times with BD Stain buffer, and resuspended in 250 μl BD Stain buffer and subjected to FACS analysis on a FACStarPlus. Commercial mouse anti-human CXCR5 mAb (R&D; MAB 190) was used as a positive control.

[2] = target: T2, N-terminal EC region of human CXCR5 …; assay: Biacore, forward format: biotin-tagged CXCR5 N-terminal peptide (aa 1-59) on the chip, antibody as analyte
Procedure: The N-terminal EC region of CXCR5 (amino acids 1-59) from human and mouse were synthesized with a terminal biotin tag, and used in a forward format Biacore assay where the peptides were immobilized on a Biacore chip and then the kinetics of antibody interaction with the peptides on the chip were determined. The synthetic peptides were immobilized on a Biacore chip for approximately 20 response units (RUs'). Then the mAb's were exposed to the chip for kinetic measurements, following the manufacturer's recommendations (GE Healthcare, Piscataway, N.J.).

[3] = target: T3, un-tagged human CXCR5 N-terminal …; assay: Biacore, reverse format: mAb captured by pre-immobilized mouse anti-human IgG Fc antibody, un-tagged peptide as analyte
Procedure: Humanized SAR113244, a form of the 16D7 humanized variant, 16D7-HC1-LC3 that carries the S241P and L248E substitutions (substitutions introduced practicing known methods and reagents, using Kabat numbering), was captured on a Biacore chip by pre-immobilized mouse anti-human IgG Fc antibody, and then used in a reverse assay format Biacore assay where the kinetics of the un-tagged human CXCR5 N-terminal peptide (amino acids 1-59) interaction with the mAb's on the chip were determined.

| binding result [1] | Kd [2] [pM] | Kd [3] [pM] | Binder |
| --- | --- | --- | --- |
| no binding | 3.11 | – | 16D7-HC1-LC1 (antibody, V domains shown, Humanized 16D7 on an IgG4 backbone / kappa; also called Version1) VH: QVQLKESGPGLVAPSESLSITCTVSGFSLIDYGVNWIRQPPGKGLEWLGVIWGDGTTYYNPSLKSRLSISKDNSKSQVFLKVTSLTTDDTAMYYCARIVYWGQGTLVTVSA VL: DIVMTQAAPSVAVTPGASVSISCRSSKSLLHSSGKTYLYWFLQRPGQSPQLLIYRMSNLASGVPDRFSGSGSGTAFTLRISRVEAEDVGVYYCMQHLEYPYTFGGGTKLEIKR |
| no binding | 1.41 | – | 16D7-HC1-LC2 (antibody, V domains shown, Humanized 16D7 on an IgG4 backbone / kappa; also called Version3) VH: QVQLKESGPGLVAPSESLSITCTVSGFSLIDYGVNWIRQPPGKGLEWLGVIWGDGTTYYNPSLKSRLSISKDNSKSQVFLKVTSLTTDDTAMYYCARIVYWGQGTLVTVSA VL: DIVMTQAAPSVAVTPGASVSISCRSSKSLLHSSGKTYLYWFLQRPGQSPQLLIYRLSNLASGVPDRFSGSGSGTAFTLRISRVEAEDVGVYYCMQHLEYPYTFGGGTKLEIKR |
| no binding | 2.4 | – | 16D7-HC2-LC1 (antibody, V domains shown, Humanized 16D7 on an IgG4 backbone / kappa; also called Version 2) VH: EVQLKESGPGLVAPGGSLSITCTVSGFSLIDYGVNWIRQPPGKGLEWLGVIWGDGTTYYNAPLKGRLSISKDNSKSQVFLQMNSLKTDDTAMYYCARIVYWGQGTLVTVSS VL: DIVMTQAAPSVAVTPGASVSISCRSSKSLLHSSGKTYLYWFLQRPGQSPQLLIYRMSNLASGVPDRFSGSGSGTAFTLRISRVEAEDVGVYYCMQHLEYPYTFGGGTKLEIKR |
| – | 1.41 | – | mouse/human IgG4 chimeric 16D7 (antibody, V domains shown, 16D7 VH and VL on human IgG4 (IGHG4 lacking the C-terminal Lys) and kappa (IGKC); also called the hIgG4 chimera) VH: QVQLKESGPGLVAPSQSLSITCTVSGFSLIDYGVNWIRQPPGKGLEWLGVIWGDGTTYYNSALKSRLSIRKDNSQSQVFLKMNSLQTDDTAMYYCARIVYWGQGTLVTVSA VL: DIVMTQAAPSVAVTPRESVSISCRSSKSLLHSSGKTYLYWFLQRPGQSPQLLIYRMSNLASGVPDRFSGSGSGTAFTLRISRVEAEDVGVYYCMQHLEYPYTFGGGTKLEIKR |
| – | – | 11.3 | Humanized SAR113244 (16D7-HC1-LC3 carrying the S241P and L248E substitutions) (antibody, Leader (residues 1-19) left out as for 16D7-HC1-LC3) heavy: not shown light: DIVMTQAAPSVAVTPGASVSISCRSSKSLLHSSGKTYLYWFLQRPGQSPQLLIYRLSSLASGVPDRFSGSGSGTAFTLRISRVEAEDVGVYYCMQHLEYPYTFGGGTKLEIKRTVAAPSVFIFPPSDEQLKSGTASVVCLLNNFYPREAKVQWKVDNALQSGNSQESVTEQDSKDSTYSLSSTLTLSKADYEKHKVYACEVTHQGLSSPVTKSFNRGEC |
| – | 184 | – | 16D7-HC3-LC5 (antibody, V domains shown, Resurfaced 16D7; VL fused to IGKC, VH fused to IGHG4 lacking the C-terminal Lys; also called Version6) VH: QVQLQESGPGLVAPSESLSITCTVSGFSLIDYGVNWIRQPPGKGLEWLGVIWGDGTTYYNPSLKSRLSISKDNSKSQVFLKMNSLTAADTAMYYCARIVYWGQGTLVTVSS VL: DIVMTQSALSVAVTPGESVSISCRSSKSLLHSSGKTYLYWFLQRPGQSPQLLIYRLSNLASGVPDRFSGSGSGTAFTLKISRVEAEDVGVYYCMQHLEYPYTFGGGTKLEIKR |
| – | 91.7 | – | 16D7-HC1-LC6 (antibody, V domains shown, Leader (residues 1-19) left out by comparison with the printed variable domains) VH: QVQLKESGPGLVAPSESLSITCTVSGFSLIDYGVNWIRQPPGKGLEWLGVIWGDGTTYYNPSLKSRLSISKDNSKSQVFLKVTSLTTDDTAMYYCARIVYWGQGTLVTVSA VL: DIVMTQSALSVAVTPGESVSISCRSSKSLLHSSGKTYLYWFLQRPGQSPQLLIYRLSSLASGVPDRFSGSGSGTAFTLKISRVEAEDVGVYYCMQHLEYPYTFGGGTKLEIKR |
| – | 4.92 | – | 16D7-HC3-LC4 (antibody, V domains shown, Resurfaced 16D7; VL fused to IGKC, VH fused to IGHG4 lacking the C-terminal Lys; also called Version5) VH: QVQLQESGPGLVAPSESLSITCTVSGFSLIDYGVNWIRQPPGKGLEWLGVIWGDGTTYYNPSLKSRLSISKDNSKSQVFLKMNSLTAADTAMYYCARIVYWGQGTLVTVSS VL: DIVMTQSALSVAVTPGESVSISCRSSKSLLHSSGKTYLYWFLQRPGQSPQLLIYRMSNLASGVPDRFSGSGSGTAFTLKISRVEAEDVGVYYCMQHLEYPYTFGGGTKLEIKR |
| no binding | 1.21 | – | 16D7-HC1-LC3 (antibody, Humanized 16D7 on an IgG4 backbone / kappa; also called Version 4) heavy: not shown light: DIVMTQAAPSVAVTPGASVSISCRSSKSLLHSSGKTYLYWFLQRPGQSPQLLIYRLSSLASGVPDRFSGSGSGTAFTLRISRVEAEDVGVYYCMQHLEYPYTFGGGTKLEIKRTVAAPSVFIFPPSDEQLKSGTASVVCLLNNFYPREAKVQWKVDNALQSGNSQESVTEQDSKDSTYSLSSTLTLSKADYEKHKVYACEVTHQGLSSPVTKSFNRGEC |

| Binder | binding result [1] | Kd [2] [pM] | Kd [3] [pM] |
| --- | --- | --- | --- |
| Mouse anti-hCXCR5 mAb clone 16D7 (antibody, V domains shown, Mouse monoclonal antibody from a hybridoma; kappa light chain; also called murine 16D7; parent 16D7 antibody) VH: QVQLKESGPGLVAPSQSLSITCTVSGFSLIDYGVNWIRQPPGKGLEWLGVIWGDGTTYYNSALKSRLSIRKDNSQSQVFLKMNSLQTDDTAMYYCARIVYWGQGTLVTVSA VL: DIVMTQAAPSVAVTPRESVSISCRSSKSLLHSSGKTYLYWFLQRPGQSPQLLIYRMSNLASGVPDRFSGSGSGTAFTLRISRVEAEDVGVYYCMQHLEYPYTFGGGTKLEIK | no binding (tested: One µg of antibody added to 50 µl PBMC) | 2.16 | – |
